Assays:
Assay in all cases: Tyrosine phosphorylation and MAPK activation, immunoblotting
Assay type in all cases: cell-based
Conditions in all cases: doses as high as 1 μg/ml
D1 cells = test system: D1 cells
Procedure: (§1) For receptor activation studies, derivatives of the 32D cell line were resuspended in phosphate-buffered solution (PBS) and incubated at 22 C for 15 minutes before adding growth factors and incubating for five minutes at 37 C. Cells were then pelleted and lysed in ice cold solubilization buffer [50 mM Tris-HCl pH 7.5, 150 mM NaCl, 1% Nonidet-P40, 0.5% Na-deoxycholate, 0.1% sodium dodecyl sulfate (SDS), 1.5 mM EDTA, 1.5 mM MgCl2, 2 mM Na-orthovanadate, 1 mM phenylmethylsulfonyl fluoride (PMSF), 10 µg/ml aprotinin and 10 µg/ml leupeptin] and left on ice for 15 minutes. The whole cell extract was then cleared by centrifugation (12,000×g for 10 minutes at 4 C), immediately boiled in reducing gel sample buffer, and resolved by 10% SDS PAGE before being transferred onto nitrocellulose. Filters were blocked in TBST buffer (0.02 M Tris-HCl pH 7.5, 0.15 M NaCl, 0.05% Tween-20) containing 1% milk for 40 minutes at 22 C, blotted with primary antibodies in TBST overnight at 4 C, followed by conjugation with a secondary antibody linked to horseradish peroxidase and subsequent detection by chemiluminescence (Amersham Corp.).
(§2) Evidently, NRG-4 binds to ErbB-4 and mediates cell proliferation through activation of this receptor. Because other ErbB ligands stimulate cell growth via tyrosine phosphorylation of their respective receptors and activation of the intervening mitogen-activated protein kinase (MAPK) cascade, these two signaling steps were tested in NRG-4-responsive myeloid cells expressing ErbB-4 (D4 and D24 cell lines). Cells were stimulated with 100 ng/ml of activating ligand for five minutes, followed by lysis and analysis by immunoblotting.

D12 cells = test system: D12 cells
Procedure: as §1, §2

D13 cells = test system: D13 cells
Procedure: as §1, §2

D2 cells = test system: D2 cells
Procedure: as §1, §2

D23 cells = test system: D23 cells
Procedure: as §1, §2

D3 cells = test system: D3 cells
Procedure: as §1, §2

B1: NRG-4: synthetic refolded mouse EGF-like domain of NRG-4 (residues 4 to 50, SEQ ID NO:2) (peptide, listed as Mus musculus)
chain: MPTDHEQPCGPRHRSFCLNGGICYVIPTIPSPFCRCIENYTGARCEEVFLPSSSIPSESNLSAAFVVLAVLLTLTIAALCFLCRKGHLQRASSVQCEISLVETNNTRTRHSHREH
did not stimulate: stimulation of D1 cells (D1 cells) | stimulation of D12 cells (D12 cells) | stimulation of D13 cells (D13 cells) | stimulation of D2 cells (D2 cells) | stimulation of D23 cells (D23 cells) | stimulation of D3 cells (D3 cells)

Source: patent publication US7981997B2, “Growth factor which acts through ErbB-4 RTK” (Yeda Research And Development Co., priority 2000, dated 2011)
